Measured values taken from PMC5698441, “Molecular basis of AKAP79 regulation by calmodulin” (Nature Communications, 2017).

Target: T1, biotin-CaM and GST-AKAP79 (1–153) (Homo sapiens, UniProt P0DP23)
T1 construct: made in house; host or cells: E. coli BL21 (DE3)
Test: alphascreen disruption of biotin-CaM / GST-AKAP79 (1–153) interaction
Assay type: binding
Conditions: 20-mer scanning peptides at 100 nM; biotin-CaM 10 nM; 1 mM CaCl2, 20 mM HEPES pH 7.2; preincubation 1 h 22 °C; mean ± s.e.m., n = 5 (Fig. 2d)
Procedure: To examine whether this could correspond to the CaM-binding site in AKAP79, we used a complementary method - the amplified luminescent proximity homogenous assay (alpha)-screen technique-to scan the N-terminus of AKAP79 for sequences that could mediate interactions with CaM. […] We screened peptides derived from the N-terminus of AKAP79 for their ability to reduce alphascreen emission. […] The effect of each peptide at 100 nM concentration on CaM–AKAP79 (1–153) interaction is shown in Fig. 2d as log2 emission ratios (with/without peptide).
To determine whether these basic amino acids contribute to the interaction, we compared how effectively peptides of different lengths could disrupt CaM–AKAP79 interaction.
In general, assays were performed in 50 μL buffer consisting of 20 mM HEPES pH 7.2, 100 mM NaCl, 0.1% BSA, 1 mM EGTA, 5 mM MgCl2, 1 mM CaCl2. CaCl2 was excluded where appropriate.
To determine the K Ca for CaM binding to calcineurin and AKAP79, the CaCl2 concentration was varied to produce different free Ca^2+ concentrations on the basis of calculations using maxchelator[43]. After initial incubations, anti-GST acceptor beads (PerkinElmer) were added at 10 ng/μL. […] After 1 h further incubation with vigorous shaking in a thermomixer (1200 r.p.m.), light emission at 568 nm was measured following excitation with a 680 nm laser using a Mithras LB 940 (Berthold Technologies). […]

- alphascreen signal compared to untreated samples (emission ratio with/without peptide): did not
Substance: D: 20-mer peptide of the AKAP79 N-terminus walk, positions 36-55 (CFKRRKKAAKALKPKAGSEA; UniProt P24588 36-55, looked up, fragment)
